The source of these data is US20040138440A1, “Aspergillus fumigatus cofilin” (priority 2004, published 2004).

This assay addresses T1, preassembled pyrene-actin filaments (Gallus gallus, UniProt P68139).
T1 construct: Mince 2 kg of fresh, boneless, skinless chicken breast in a pre-chilled meat grinder; from tissue; host or cells: chicken breast (skeletal) muscle, via acetone powder
As to the kind of experiment: pyrene actin assay (decrease in fluorescence of filamentous pyrene-actin on addition of cofilin). Type of assay: biochemical, chicken. The following applies: addition of stoichiometric amounts of cofilin to preassembled pyrene-actin filaments; FIG. 3. The source says: The effect of cofilin on preassembled pyrene-actin filaments is monitored. Two cofilin activities—binding to actin polymer and enhancing depolymerization—combine to reduce the relative fluorescence intensity. Addition of stoichiometric amounts of cofilin results in a 3-5 fold reduction in fluorescence intensity. In both these assays, any inhibitor will result in an increase in relative fluorescence intensity. For both graphs, the x-axes show cycle number (1 cycle/30 sec) and the y-axes reflect fluorescence in arbitrary units..
Assays for the interaction of A. fumigatus cofilin and any other cofilin with actin in 384-well plates using a fluorescence as the detection means have been developed. […]
Upon addition of cofilin to filamentous pyrene-actin, two well-characterized biochemical activities can be monitored. First, cofilin binds to the filaments and partially quenches the pyrene fluorescence. Second, it induces filament disassembly, further decreasing pyrene fluorescence. The decrease in fluorescence that results when cofilin is added to filamentous actin is monitored (FIG. 3). An inhibitor of the interaction of cofilin with pyrene-actin will result in an increase in fluorescence. […]
Thaw Actin, Pyrene-Actin and Cofilin pellets on ice or at room temp. […] Take readings at OD290. […]
Add 25 ul of sample into each well. […] Take Pyrene-Kinetic readings (Fluorostar setting) at 150 cycles, 360 to […].

B1: A. fumigatus cofilin: proteins or polypeptides present in A. fumigatus that are capable of binding actin; amino acid sequence SEQ ID NO:2; expressed in E. coli (protein, listed as Aspergillus fumigatus)
chain: MALASGVSIADECITAFNDFRMSGNKANKTKFIIFKIADNKKEVVIDEVSQEEDYEVFRSRLEATKDSKGNPAPRYAVYDVEYDLGGGEGKRSKIVFISWVPSDTPTLWSMIYASTRENLKNALNIHTSIHADDKGDIEWKTVLAEASGGKAGK
modifications: Cofilin sequence
notes: expressed in E. coli
On to B1, for which the “reduction in fluorescence intensity” value is on record as 3-5 fold.
